The source of these data is publication doi:10.1101/2023.04.03.535218, “Distributable, Metabolic PET Reporting of Tuberculosis” (bioRxiv, 2023).

Substrate in the series “continuous 1H NMR assay”: O=P(O)(O)OC[C@H]1O[C@H](O[C@H]2O[C@H](CO)[C@@H](O)[C@H](O)[C@H]2O)[C@H](O)[C@@H](O)[C@@H]1O
Briefly: continuous 1H NMR assay. The class given is biochemical, Escherichia coli. The note with it: 37 °C. The source says: continuous 1H NMR assay on OtsB

Substrate in series [1]: O=P(O)(O)OC[C@H]1O[C@H](O[C@H]2O[C@H](CO)[C@@H](O)[C@H](O)[C@H]2O)[C@H](O)[C@@H](O)[C@@H]1O
Briefly: table note: endpoint HPLC; Methods: malachite green assay. The format is biochemical, Escherichia coli. The note with it: method note of the table (HPLC, fixed Glc, 70 °C) does not fit this enzyme. The source says:
table note: endpoint HPLC; Methods: malachite green assay on OtsB^Sf

B1: OtsB (Escherichia coli K-12) (protein)
chain: MTEPLTETPELSAKYAWFFDLDGTLAEIKPHPDQVVVPDNILQGLQLLATASDGALALISGRSMVELDALAKPYRFPLAGVHGAERRDINGKTHIVHLPDAIARDISVQLHTVIAQYPGAELEAKGMAFALHYRQAPQHEDALMTLAQRITQIWPQMALQQGKCVVEIKPRGTSKGEAIAAFMQEAPFIGRTPVFLGDDLTDESGFAVVNRLGGMSVKIGTGATQASWRLAGVPDVWSWLEMITTALQQKRENNRSDDYESFSRSI
notes: expressed in E. coli
As usually defined, the Km is the concentration of substrate that gives half-maximal velocity. For orientation: kcat means the maximal rate divided by the concentration of active sites. A word on the kcat/Km: it is the turnover number divided by the Michaelis constant. In the case of B1, in “continuous 1H NMR assay”, the Km was found to be 3.6 ± 0.8 mM, the kcat worked out at 286 ± 34 s⁻¹ and the kcat/Km came to 79000 M⁻¹ s⁻¹.

B2: OtsB^Sf (Escherichia coli K-12) (protein)
chain: B1 chain
notes: purified on Ni-NTA
B2: in series [1], the Michaelis constant (Km) is recorded as 2.8 ± 0.7 mM, the catalytic constant (kcat) was determined as 740 ± 96 s⁻¹ and the kcat/Km stood at 264000 M⁻¹ s⁻¹.
